Assay: yeast display, Sf9 membrane polyspecificity reagent, FACS + sequencing; frameworks hold sequencing errors
How it was run: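 Using colony PCR, genes from sorted yeast display clones were amplified, then sequenced on MiSeq at 2 × 250 and filtered by CDR length. The clones had been stained with 10% biotinylated, detergent-solubilized Sf9 membrane reagent for 1 hour at 4 °C and sorted by FACS into low and high (top ~1%) gates on anti-HA and streptavidin fluorescence. Polyreactivity labels come from the gate of origin.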

QVQLVESGGGLVQAGGSLRLSCAASGSIFWKYAMGWYRQAPGKERELVAAISRSSSTTYYADSVKGRFTISRDNAKNTVYLQMNSLKPEDTAVYYCAADWRTKGYDSLGQGTQVTVSS
polyreactivity (PSR sort gate): high polyreactivity

QVQLVESGGGLVQAGGSLRLSCAASGRTFDRNAMGWYRQAPGKEREVVAAISSSSGSTYYADSVKGRFTISRDNAKNTVYLQMNSLKPEDTAVYYCATVRWYYSRPRPTTAYGYWGQGTQGTVSS
polyreactivity (PSR sort gate): high polyreactivity

QDQLLESVGGLVQAGGSLRLSCAATGSTFHRSVMGSYRQAPGKEREMVAVINSTGGSTYYADSVKGRFTISLDNAKNTVYLQMNSVKPEDSAVYYFAADLYSIEYETAYRGYEYWGQGTQVTVSS
polyreactivity (PSR sort gate): low polyreactivity

QVQLVESGGGIVQAGGSLRLSCAASGSTFGSYAMGWYRQAPGKVRELVAAIYRAGSTYADSVKGRFTISRDNAKYTVYFQMNSLKPEDTAVYYCAKRDNALYYGYDYWRQGTQVTVSS
polyreactivity (PSR sort gate): low polyreactivity

QVQLVESGGGLVQAGGSLRLTCAASGRTFKGYAMGWYRQEPGKERELVAAISYRGGSTYYADSVKGRFTISRDNAKNTVYLQMNSLKPEDTAVYYCAAQGRSKYRGYYYWGQGTQVTVSS
polyreactivity (PSR sort gate): high polyreactivity

QVQLVDSGGGLVQAGGSLRLSCAASGFTFTPNAMGWYRQAPGTERELVAAISRRGGSTYYADSVKGRFTISRDNAKNTVYLQMNSLKPEDTAVYYCAASSSGRGGYWGQGTQVTVSS
polyreactivity (PSR sort gate): high polyreactivity

QVQLVESGGGLVQAGGSLRLSCAASGRIFDIYAMGWYRQAPGKERELVAAITSGGSTYYADSVKGRFTNSRDNAKNTVYFQMNILKPEYTAVYYCAADSVLLKDTGYDYWGKGTQVTVSS
polyreactivity (PSR sort gate): low polyreactivity

QVQLVESGGRLVQAGGSLLLSCAASGRIFDKYAMGWYRQAPGKERELVAAITYIDSGTYYADSVKGRFTISRDNAKNTVYLQMNSLKPEDTAVYYCAARYPSDYDYWGQDTQVTVSS
polyreactivity (PSR sort gate): low polyreactivity

QVQLVESGGGLVQAGGSLRLSCAASGSTFSRYAMGWYRQAPGKERELVAAISQGGGRTYYADSVKGRFTISRDNAKNTVYLQMNSLKPEDTAVYYCAAREYYRKPYDHWGQGTQVTVSS
polyreactivity (PSR sort gate): high polyreactivity

QVQLVESGGGLLQAGGSLRLSCAASGHTLYRYARGWYRQAPGKERELVAAITSRGGSTFYADSVKGRFTISRDTAKNSVYLQMNRLQPEDTAVYYCNTARGTAPAHDYWGQGTQVTVSS
polyreactivity (PSR sort gate): low polyreactivity

QFQLVESGGGLVQAGGSLRLSCAASARTFVSNAMGWDRQAPGKERELVADITSGGSTDYADSVKGRFTSSRDNAKNTVYVQMNSVKPEDTAVSYCATDLWRWYGWFDYWGQGTQVTVSS
polyreactivity (PSR sort gate): low polyreactivity

QVQLVESGGGLVHAGGCLRLSCAASGRTFAPYAMGWYRLAPGKERELVAAINSGDRTYYADSVKGRFTLSRDNAKNTVNLQINSLKPEDTSGYYCSSDALAGQYTWYKYDYWGQGSQVTVSS
polyreactivity (PSR sort gate): low polyreactivity

QVQLVESGGGLVQAGCSLRLSCAASGLIFYYYAMGWYRQAPGKERELVAAITSDDRTYYADSVKGRFTISRDNAKNTVYLQMNSLKPEDTAVYYCAARYHGYLAQYRKYGYGYWGQGTQVTVSS
polyreactivity (PSR sort gate): high polyreactivity

QVQLVESGGGLVQAGGSLRLRCAASGSISWLYSMGCYSQAPGKERELVAAISWGGGDTYYADSVKGRFTISRDNAKNTVYLQMHSLKPEDTEVFYCAADSDYYWLAYDYWGQGTQVTLSS
polyreactivity (PSR sort gate): low polyreactivity

QVQLVESGGGLVQAGGSLRLSCAASGRTIRHNAMGWYRQAPGKERELVAAISRSGGSTYYADSVKGRFTISRDNAKNTVYLQMNSLKPEDTAVYYCAAGYHIIYTPEYYYWGQGTQVTVSS
polyreactivity (PSR sort gate): high polyreactivity

QGQPVESGGGLVQAGGSLRLSCAASGLIFRWYAMGWNRQAPVQEREVVAAISWSGASTYYADSVKGRFTISRDTPKNTVYLQMNSLKPDDTAVYYCAADYGYYGAGSYFDRGDYWGQGTQVTVSS
polyreactivity (PSR sort gate): high polyreactivity

QVQLVESGGGLVQAGGSLRLSCAASGFTYYHNVMGWYRQAPGKERELVAAISSGGDTTYYADSVKGRFTISRDNAKNTVSLQKNSLKPEDTAVYYCNADRQIGRYYHFDYWGQGTQVSVSS
polyreactivity (PSR sort gate): high polyreactivity

QVQLVESGGGLVQAGGSLRLSCAASGRTFWVYAMGRYRQAPGKEREFVAAISSNGDRTYYADSVKGRFTISRDNAKNTVYLQMNSLKPEDTAVYYCNSRKQYRYLADRMDYWGQGTQVTVSS
polyreactivity (PSR sort gate): high polyreactivity

QEQLVESGGGLVQAGGSLRLSCAATGLTITDYAMGWYRQAPGKERELDAGINTRGTSRYSADSVKGRFTISRDNAKNTVYFQMFSLNPEDTAVYYCDSEYFGYWYGIQYDYWGQGTQVTVSS
polyreactivity (PSR sort gate): high polyreactivity

QVQLVESGGGLVQAGGSLRLSCAASGIIFALNAMGWYRQAPGKERELVATIDSTSGSTYYADSVKGRFTISRDNAKNTVYLQMNSLKPEDTAVYYCAVVHAQSAPMDYWGQGTQVTVSS
polyreactivity (PSR sort gate): low polyreactivity

QVQLVESGGGLVQAGGSLRLSCAASGSTFHWYDMGWYRPAPGKERELVAGINSSGDGTYYADSVKGRFTISRDNAKNTVYLQMNSLKPEDTAVYYCAAPWWYYGVPYQTNKYDYWGQGTQVTVSS
polyreactivity (PSR sort gate): low polyreactivity

QVQLVESGGGLVQAGGSLRLSCAASGSTFGVYAMGWYRQAPGKERELVAAISKRGGSTYYADSVKGRFTISRDNAKNTVYLQMNSLKPEDTAVYYCAAGARGLYDYWGQGTQVTVSS
polyreactivity (PSR sort gate): high polyreactivity

QVQQVESGGGLVQAGGSLRLSCAATGRTFALYAMGWYRLAPGKERELVAGITFRGGSTYYADSVKGRFTISRDNAKNTVYLQMNSLKPEDTAVYYCAAERWRWYYSWTMDYWGQGTQVTVSS
polyreactivity (PSR sort gate): high polyreactivity

QVQLVESGGGLVQAGGSLRLSCAASGSTFAYYAMGWYRQAPGKERELVAAISWSGGSTYYADSVKGRFTISRDNAKNTVYLQMNSLKPEDTAVYYCNKRNVLDYDYWGQGTQVTVSS
polyreactivity (PSR sort gate): low polyreactivity

QVQLVESGGGLVQAGGSLRLSCAASGRTFLVYAMGWYRQAPGKERELVAAIRYSGSSTYADSVKGRFTISRDNAKNTVYLQMNSLKPEDTAVYDCNARRASYRSIYDYWGHGTQVTVSS
polyreactivity (PSR sort gate): high polyreactivity

QVQLVESGGGLVQAGGSLRLSCAASGFTFPSYAMGWYRQAPGKERELVAVISRRGGSTYYADSVKGRFTISRDNAKNTVYLQMNSLKPEDTAVYYCNAPYYVFITFDYWGQGTQVTVSS
polyreactivity (PSR sort gate): high polyreactivity

QVQLVESGGGLVQAGRSLRLSCAASGSTILYYAMGWYRQAHGKERELVARITTRGSRTYYADSVKGRFTISRDNAKNTVYLQMNSLKPEDTAVYYCNKVRPGYGVTYLVGYWGQGTQVTVSS
polyreactivity (PSR sort gate): high polyreactivity

QVQLVESGGGLVQAGGSLRLSCAASGNTFGKYGVGWYRQAPGKEREFVAAITSRGTSTYYADSVKGRFTISRDNEKNTVYLQMNSLKPEDTAVYYCNARPRYKYPRYDYWGQGTQVTVSS
polyreactivity (PSR sort gate): high polyreactivity

QVQLVESGGGLVQAGGSLRLSCAASGITFWSNAMGWYRQAPGKERELVAAITSGGNTNYADSVKGRFTISRDNAKNTVYLQMNSLKPEDTAVYYCAKRWTAREPWRKGMGYWGQGTQVTVSS
polyreactivity (PSR sort gate): high polyreactivity

QVQLVESGGGLVQAGGSLRLSCAASGRIFIFNAMGWYRQAPGKERELVAAISTRGGSTRYADSVKGRFTISRDNAKNTVYLQMNSLKPEDTAVYYCAAVYLYYAYAFDYWGQGTQVTVSS
polyreactivity (PSR sort gate): high polyreactivity

QVQLVESGGGLVQAGGSLRLSCAASGYTFCVYVMGWYRQAPGKERELVAAISGSTYYADSVKGRFTISRDNAKNTVYLQMNSLKPEDTAVYYCAAESYFFSPRTREKFDYWGQGTQVTVSS
polyreactivity (PSR sort gate): low polyreactivity

QVKLVESGGGLVQAGGRLRLSCAASGFTFPSNAMVWYRHAPGKEREMVAAISSTDSTNYADSVMGRFTISRDNAKNTVYLQMNSLNPEDTAVYYCAKRYPRYRYNTRGNDYWGQGTQVTVSS
polyreactivity (PSR sort gate): low polyreactivity

QVQLVESAGGLVQAGGSLRLSCAASGFTFREYAMGWYRQAPGKERELVAVITSGDNTYYADSVKGRFTISRDNAKNTVYLQMNSLKPEDTAVYYCAKDYNRYYWPWVIRGYDYWGQGTQVTVSS
polyreactivity (PSR sort gate): low polyreactivity

QVQLVESGGGLVQAGGSLRLSCAASGSTFYYYAMGWYRQAPGKEREFVAAISSSTGSTYYADSVKGRFTISRDNAKNTVYLQMNSLKPEDTAVYYCNALTWYTSQDYDYWGQGTQVTVSS
polyreactivity (PSR sort gate): high polyreactivity

QVQLEESGGGLVQAGGSLRLSCAASGLIFSAYAMGWYRQAPGKERELVAAIRTGGSTYYADSVKGRFTFSRDNAKNTVYLQMNSLKPVDTAVYYCAASQKGYFYYNVYYWGQGTQVTVSS
polyreactivity (PSR sort gate): high polyreactivity

QVQLVESGGGLVQAGGSLRLSCAASGSIFFLYAMGWSRQAPGKEWELVAAISRTGSTYADSVKGRFTISRDNAKNTVYLQMNSLKPEDTAVYYCADEYRYYWYGTMNYWGQGTQVTVSS
polyreactivity (PSR sort gate): low polyreactivity

QVQLEESGGGLVQAGGSLRLSCAASGNTLGPYAMGWYRQATGKERELVAAITWSGGITDYADYVKGRFTISRDNAKNTVYLQMNSLKPEDTAVYYCNSGPSLGIFQGTSVGLRYDYWGQGTQVTLSS
polyreactivity (PSR sort gate): low polyreactivity

QVQLVESGGGLVQAGGSLRLSCAASGGTLKYYAMGWYRQAPGKEREVVATISSRGGSTYYADSVKGRFTISRDNAKNTVYLQMNSLKPEDTAVYYCARRYWVQSRYPEMDYWGQGTQVTVSS
polyreactivity (PSR sort gate): high polyreactivity

QVQLVESGGGLVQAGGSLRLSCAASGSIFVGNAMGWYRQAPGKERELVATISWSGGSTYYADSVKGRFTISRDNAKNTVYLQMNSLKPEDTAVYYCAKTPYRRYRYGGYTYRTYDYWGQGTQVTVSS
polyreactivity (PSR sort gate): low polyreactivity

QVQLVESGGGLVQAGGSLRLSCAASGRTFSYYTMGWYRQAPGKERQLVARISNRGTNTYYADSVKGRFTISRDNAKNTVYLQMNSLKPEDTAVYYCAKYYYTSIVGYDSWGQGTQVTVSS
polyreactivity (PSR sort gate): low polyreactivity

QVQLVESGGGLVQAGGSLRLICAASGITLPIYAMGWYRQAPGKERELVATISQRDARTYYADSVKGRFTISRDNAKNTVYLQMNSLKPEDTAVYYCARGYKKSVQRFEYWGQGTQVTVSS
polyreactivity (PSR sort gate): high polyreactivity

QDQLVESGGGLVQAGGSLRLSCAASGYTFTSNAMGWYRQAPRKERELVAAITNVGSTNYADSVKGRFTISRDNAKNTVNLQMNSLKPEDTAVYYCAAGGSSSWAFNYWGQGTQVTVSS
polyreactivity (PSR sort gate): low polyreactivity

QVQLVESGGGLVQAGGSLRLSCAASGSIFDYYAMGWYRQAPGKERELVAAISTSTSSTYYADSVKGRFTISRDNAKNTVYFQMNSLKPEDTAVYYCAAEGESQPESPGYDYWGQGTQVTVSS
polyreactivity (PSR sort gate): low polyreactivity
